The data set concerns Escherichia coli TOP10. Put plainly: shrunken log2 fold change of peptide-encoding DNA abundance (4.5 h post-induction vs induction); higher = less antimicrobial activity (less host growth inhibition). The following applies: time post-induction: 4.5 h; library: site-saturation at positions 5, 18, 19, 20.
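Also: peptides expressed intracellularly from a pBAD plasmid library in pooled LB shake-flask culture, induced with 0.3% L-arabinose, DNA abundance read by NGS, three biological replicates, DESeq2 with apeglm shrinkage.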

Turning to RRIRHRPPRLPRPRPRPKFVPRP, the “shrunken log2 fold change” value is -0.0479.

Consider RRIRRRPPRLPRPRPRPHKKPRP, for which the “shrunken log2 fold change” value was 0.228.

As for RRIRVRPPRLPRPRPRPECTPRP, the “shrunken log2 fold change” value was found to be 0.464. The result for RRIRQRPPRLPRPRPRPDMVPRP reads -0.0075; that for RRIRIRPPRLPRPRPRPQVMPRP, -0.604. Turning to RRIRKRPPRLPRPRPRPTCTPRP, the “shrunken log2 fold change” value worked out at 0.314. Under RRIRYRPPRLPRPRPRPRMMPRP stands 0.0163; under RRIRVRPPRLPRPRPRPWSCPRP, -0.155; under RRIRFRPPRLPRPRPRPLPFPRP, -0.452. Turning to RRIRNRPPRLPRPRPRPLDAPRP, the “shrunken log2 fold change” value was 0.0657.

As to RRIRERPPRLPRPRPRPHDAPRP, the “shrunken log2 fold change” value is -0.437. Regarding RRIRWRPPRLPRPRPRPPYKPRP, the “shrunken log2 fold change” value is -0.249. RRIRFRPPRLPRPRPRPFDDPRP: the “shrunken log2 fold change” value is -0.488. The result for RRIRLRPPRLPRPRPRPGGRPRP reads -0.0451. With RRIRKRPPRLPRPRPRPVRRPRP, the “shrunken log2 fold change” value amounted to 0.377.

As to RRIRRRPPRLPRPRPRPIPEPRP, the “shrunken log2 fold change” value is 0.12. With RRIRSRPPRLPRPRPRPRPNPRP, the “shrunken log2 fold change” value turned out to be 0.345.

Consider RRIRDRPPRLPRPRPRPQCWPRP, for which the “shrunken log2 fold change” value is 0.0162. As for RRIRTRPPRLPRPRPRPRAMPRP, the “shrunken log2 fold change” value is 0.41. As for RRIRWRPPRLPRPRPRPHKTPRP, the “shrunken log2 fold change” value came out at 0.175. The result for RRIRTRPPRLPRPRPRPCLGPRP reads -0.534; that for RRIRQRPPRLPRPRPRPDECPRP, 0.0568; that for RRIRTRPPRLPRPRPRPNCYPRP, -0.836.

In the case of RRIRTRPPRLPRPRPRPTSHPRP, the “shrunken log2 fold change” value is -0.478. As for RRIRSRPPRLPRPRPRPFMIPRP, the “shrunken log2 fold change” value is -0.184.

Turning to RRIRARPPRLPRPRPRPWEVPRP, the “shrunken log2 fold change” value turned out to be 0.205. In the case of RRIRLRPPRLPRPRPRPNTDPRP, the “shrunken log2 fold change” value is -0.371. Under RRIRKRPPRLPRPRPRPLGIPRP stands 4.29. For RRIRGRPPRLPRPRPRPEYRPRP, the “shrunken log2 fold change” value turned out to be 0.354. Regarding RRIRGRPPRLPRPRPRPPDWPRP, the “shrunken log2 fold change” value is 1.24. The result for RRIRGRPPRLPRPRPRPNDKPRP reads 0.342. As to RRIRKRPPRLPRPRPRPENNPRP, the “shrunken log2 fold change” value amounted to 0.179. The result for RRIRRRPPRLPRPRPRPGELPRP reads 0.12; that for RRIRERPPRLPRPRPRPRGIPRP, -0.102; that for RRIRGRPPRLPRPRPRPMNGPRP, 0.00709. On to RRIRWRPPRLPRPRPRPGNAPRP, for which the “shrunken log2 fold change” value turned out to be 0.146. With RRIRVRPPRLPRPRPRPMDIPRP, the “shrunken log2 fold change” value is -0.308. Turning to RRIRQRPPRLPRPRPRPRDYPRP, the “shrunken log2 fold change” value was found to be 0.0272. The result for RRIRVRPPRLPRPRPRPWYRPRP reads -0.39; that for RRIRTRPPRLPRPRPRPATIPRP, -0.0446; that for RRIRERPPRLPRPRPRPAICPRP, -0.141.

Take RRIRMRPPRLPRPRPRPANKPRP: the “shrunken log2 fold change” value was 0.178. The result for RRIRMRPPRLPRPRPRPCVCPRP reads -0.00811; that for RRIRWRPPRLPRPRPRPLHMPRP, -0.0711; that for RRIRTRPPRLPRPRPRPSCPPRP, -0.444. For RRIRRRPPRLPRPRPRPWEFPRP, the “shrunken log2 fold change” value came out at 0.00288. On to RRIRNRPPRLPRPRPRPWVEPRP, for which the “shrunken log2 fold change” value is -0.109.

For RRIRPRPPRLPRPRPRPDHIPRP, the “shrunken log2 fold change” value is -0.0312. Under RRIRWRPPRLPRPRPRPHSTPRP stands -0.209; under RRIRCRPPRLPRPRPRPRFKPRP, -0.00257; under RRIRNRPPRLPRPRPRPTYYPRP, -0.325. Turning to RRIRYRPPRLPRPRPRPILVPRP, the “shrunken log2 fold change” value is -0.237.

For the sequence RRIRPRPPRLPRPRPRPYMTPRP, the “shrunken log2 fold change” value is -0.227. The result for RRIRVRPPRLPRPRPRPHDIPRP reads 0.0663. The result for RRIRRRPPRLPRPRPRPNLCPRP reads 0.00272; that for RRIRDRPPRLPRPRPRPDSVPRP, -0.0148; that for RRIRVRPPRLPRPRPRPVQSPRP, -0.104. The result for RRIRGRPPRLPRPRPRPTGLPRP reads 0.885; that for RRIRWRPPRLPRPRPRPLHIPRP, -0.465; that for RRIRKRPPRLPRPRPRPFPQPRP, 0.11. For RRIRNRPPRLPRPRPRPGGGPRP, the “shrunken log2 fold change” value is 0.723. In the case of RRIRRRPPRLPRPRPRPVLTPRP, the “shrunken log2 fold change” value came out at 0.386.

As to RRIRSRPPRLPRPRPRPYWKPRP, the “shrunken log2 fold change” value was -0.144. RRIRQRPPRLPRPRPRPNHDPRP: the “shrunken log2 fold change” value was -0.509.

As for RRIRKRPPRLPRPRPRPADFPRP, the “shrunken log2 fold change” value is 0.344. Under RRIRGRPPRLPRPRPRPKKDPRP stands 0.708; under RRIRIRPPRLPRPRPRPEHSPRP, 0.0398. Under RRIRIRPPRLPRPRPRPVNGPRP stands -0.0532; under RRIRNRPPRLPRPRPRPLCKPRP, -0.146; under RRIRHRPPRLPRPRPRPFCDPRP, 0.128. The result for RRIRFRPPRLPRPRPRPYMTPRP reads -0.49; that for RRIRFRPPRLPRPRPRPTVEPRP, 0.0624; that for RRIRMRPPRLPRPRPRPGLHPRP, 0.412. Regarding RRIRWRPPRLPRPRPRPAPNPRP, the “shrunken log2 fold change” value turned out to be 3.12. In the case of RRIRIRPPRLPRPRPRPYKEPRP, the “shrunken log2 fold change” value came out at 0.0131. Under RRIRMRPPRLPRPRPRPRQIPRP stands 1.19. For RRIRERPPRLPRPRPRPLGYPRP, the “shrunken log2 fold change” value is -0.39. Under RRIRTRPPRLPRPRPRPWARPRP stands -0.00874; under RRIRCRPPRLPRPRPRPYREPRP, -0.09; under RRIRCRPPRLPRPRPRPNVLPRP, -0.464.

On to RRIRTRPPRLPRPRPRPCPKPRP, for which the “shrunken log2 fold change” value worked out at 0.0604. Under RRIRRRPPRLPRPRPRPGSWPRP stands 0.189; under RRIRWRPPRLPRPRPRPKSVPRP, -0.0882; under RRIRCRPPRLPRPRPRPVREPRP, 0.386. RRIRKRPPRLPRPRPRPCNMPRP: the “shrunken log2 fold change” value was -0.0983. As for RRIRNRPPRLPRPRPRPMGNPRP, the “shrunken log2 fold change” value was -0.0658. Regarding RRIRDRPPRLPRPRPRPGNHPRP, the “shrunken log2 fold change” value amounted to 0.0062.

With RRIRFRPPRLPRPRPRPVDTPRP, the “shrunken log2 fold change” value was -0.123. Under RRIRFRPPRLPRPRPRPGSAPRP stands 0.182. Under RRIRVRPPRLPRPRPRPPKVPRP stands 0.392; under RRIRERPPRLPRPRPRPHNIPRP, -0.274.

With RRIRIRPPRLPRPRPRPYVMPRP, the “shrunken log2 fold change” value is -0.274.

As to RRIRNRPPRLPRPRPRPESQPRP, the “shrunken log2 fold change” value is -0.00881.

Turning to RRIRCRPPRLPRPRPRPSQQPRP, the “shrunken log2 fold change” value was -0.0757.

With RRIRGRPPRLPRPRPRPAGEPRP, the “shrunken log2 fold change” value is 0.479. With RRIRDRPPRLPRPRPRPPAGPRP, the “shrunken log2 fold change” value turned out to be 0.418. Under RRIRARPPRLPRPRPRPAPLPRP stands 0.367; under RRIRLRPPRLPRPRPRPVIMPRP, -0.0794. Under RRIRNRPPRLPRPRPRPQGNPRP stands -0.0905; under RRIRYRPPRLPRPRPRPHEMPRP, 2.66. Turning to RRIRFRPPRLPRPRPRPWWDPRP, the “shrunken log2 fold change” value is -0.0745. On to RRIRMRPPRLPRPRPRPFPWPRP, for which the “shrunken log2 fold change” value is 0.114. Under RRIRPRPPRLPRPRPRPKMTPRP stands 0.0519; under RRIRSRPPRLPRPRPRPPRYPRP, -0.0232.

Turning to RRIRPRPPRLPRPRPRPRIDPRP, the “shrunken log2 fold change” value was -0.0848. With RRIRCRPPRLPRPRPRPIQNPRP, the “shrunken log2 fold change” value was -0.538. Under RRIRRRPPRLPRPRPRPTWTPRP stands 0.464. The result for RRIRSRPPRLPRPRPRPDHHPRP reads -0.868; that for RRIRCRPPRLPRPRPRPYYRPRP, -0.301. Under RRIRTRPPRLPRPRPRPCVDPRP stands 0.0267. RRIRARPPRLPRPRPRPHQTPRP: the “shrunken log2 fold change” value is -0.103. As for RRIRSRPPRLPRPRPRPHPVPRP, the “shrunken log2 fold change” value was 0.12. The result for RRIRLRPPRLPRPRPRPPNDPRP reads 0.0552; that for RRIRHRPPRLPRPRPRPKYCPRP, -0.000924.

Take RRIRKRPPRLPRPRPRPVIEPRP: the “shrunken log2 fold change” value amounted to 0.15. Consider RRIRARPPRLPRPRPRPMYQPRP, for which the “shrunken log2 fold change” value was -0.21.

Regarding RRIRMRPPRLPRPRPRPGMEPRP, the “shrunken log2 fold change” value was determined as 0.183. Under RRIRDRPPRLPRPRPRPFIIPRP stands -0.348; under RRIRKRPPRLPRPRPRPTGTPRP, 0.563. As for RRIRPRPPRLPRPRPRPTTNPRP, the “shrunken log2 fold change” value came to 0.199. Turning to RRIRWRPPRLPRPRPRPPSWPRP, the “shrunken log2 fold change” value was 1.32. As for RRIRERPPRLPRPRPRPRFKPRP, the “shrunken log2 fold change” value turned out to be 0.00602. Regarding RRIRVRPPRLPRPRPRPSFPPRP, the “shrunken log2 fold change” value is -0.627. Under RRIRTRPPRLPRPRPRPKIFPRP stands -0.219; under RRIRDRPPRLPRPRPRPFLFPRP, 0.212.

The values are drawn from the supplement of paper PMC9112550, “Optimization of the antimicrobial peptide Bac7 by deep mutational scanning” (BMC Biology, 2022).
